For test [1], the target named is T1, Human CD137 shuffle 3 (amino acids 115-138 replaced by wild boar CD137) (human, amino acids 115-138 from wild …, UniProt Q07011 24-255).
T1 construct: also called shuffle construct 3
T1 chain: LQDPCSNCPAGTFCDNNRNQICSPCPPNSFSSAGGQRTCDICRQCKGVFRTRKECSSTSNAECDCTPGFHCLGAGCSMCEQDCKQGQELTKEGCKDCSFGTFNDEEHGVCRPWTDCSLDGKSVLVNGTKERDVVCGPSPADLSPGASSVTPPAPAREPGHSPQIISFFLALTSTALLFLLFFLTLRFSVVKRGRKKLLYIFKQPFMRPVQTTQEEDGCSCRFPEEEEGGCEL
In words: flow cytometry on transfected HEK293T-17 cells. The protocol:
(§1) 3×10⁶ HEK293T-17 cells were seeded in T75 culture flasks (Greiner Bio-One, cat. no. 658175) in 20 mL RPMI 1640 GlutaMAX medium containing 10% FCS (Biochrom, cat. no. S 0115). After O/N incubation, cells were transiently […] with expression vectors encoding the shuffle constructs or the wild boar, African elephant or human CD137 downstream of a constitutively active human elongation factor-1 alpha (EF-1 alpha) promotor using TransIT®-LT1 Transfection Reagent, Mirus Bio (VWR International, cat. no. 731-0029), according to the manufacturer's instructions. The next day, cells were harvested using 1.5 mL Accutase (Sigma Aldrich, cat. no. A6964) (incubation at 37° C. for 5 min.) and flow cytometry was performed, essentially as described in Example 4, to measure surface expression of the shuffle constructs and the human, African elephant and wild boar CD137 and to measure binding of the antibody clones to the different shuffle constructs. To measure cell surface expression of the constructs, transduced cells were incubated with 1 μg/mL goat polyclonal anti-human CD137 (R&D Systems, cat. no. AF838) in FACS buffer (D-PBS supplemented with 5 mM EDTA [Sigma Aldrich, cat. no. 03690] and 5% (v/v) fetal bovine serum [FBS, Biochrom, cat. no. S 0115]) (4° C., 20 min.), followed by incubation with APC-labeled anti-goat IgG (H+L) (R&D Systems, cat. no. F0108) (4° C., 20 min.). Binding of the different CD137 antibody clones to cells expressing the shuffle constructs was measured by incubation of the transduced cells with 1 μg/mL of the antibody clones, followed by APC-labeled AffiniPure F(ab′)2 Fragment (1:50 final dilution; Jackson, cat. no. 109-136-127).

Test [2] has as its target T2, Human CD137 shuffle 4 (amino acids 89-114 replaced by wild boar CD137) (human, amino acids 89-114 from wild boar, UniProt Q07011 24-255).
T2 construct: also called shuffle construct 4
T2 chain: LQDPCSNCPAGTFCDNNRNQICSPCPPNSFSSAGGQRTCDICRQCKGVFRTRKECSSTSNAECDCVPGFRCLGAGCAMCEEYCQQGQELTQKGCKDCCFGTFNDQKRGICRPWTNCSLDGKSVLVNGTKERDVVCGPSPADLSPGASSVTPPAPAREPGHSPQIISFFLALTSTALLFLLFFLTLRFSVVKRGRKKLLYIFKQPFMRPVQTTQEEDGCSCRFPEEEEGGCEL
In words: flow cytometry on transfected HEK293T-17 cells. As to the method:
as §1

The target in test [3] is T3, Human CD137 shuffle 1 (amino acids 162-186 replaced by wild boar CD137) (human, amino acids 162-186 from wild …, UniProt Q07011 24-255).
T3 construct: also called shuffle construct 1
T3 chain: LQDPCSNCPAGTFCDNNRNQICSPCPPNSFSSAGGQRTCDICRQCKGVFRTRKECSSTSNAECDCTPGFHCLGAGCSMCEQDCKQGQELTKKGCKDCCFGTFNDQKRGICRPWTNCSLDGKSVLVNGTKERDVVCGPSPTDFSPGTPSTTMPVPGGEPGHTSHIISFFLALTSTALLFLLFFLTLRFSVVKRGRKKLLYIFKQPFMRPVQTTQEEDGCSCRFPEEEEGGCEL
In words: flow cytometry on transfected HEK293T-17 cells, 1 µg/mL antibody. The protocol:
as §1

The target in test [4] is T4, Human CD137 shuffle 2 (amino acids 139-161 replaced by wild boar CD137) (human, amino acids 139-161 from wild …, UniProt Q07011 24-255).
T4 construct: also called shuffle construct 2
T4 chain: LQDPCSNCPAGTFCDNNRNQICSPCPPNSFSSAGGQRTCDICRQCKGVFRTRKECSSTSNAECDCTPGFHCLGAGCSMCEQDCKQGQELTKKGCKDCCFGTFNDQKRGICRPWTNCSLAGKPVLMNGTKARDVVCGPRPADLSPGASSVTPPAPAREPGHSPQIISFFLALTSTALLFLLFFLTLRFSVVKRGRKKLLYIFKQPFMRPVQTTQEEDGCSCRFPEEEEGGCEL
Described as above. The protocol:
as §1

For test [5], the target named is T5, Human CD137 shuffle 5 (amino acids 48-88 replaced by African elephant CD137) (human, amino acids 48-88 from African …, UniProt Q07011 24-255).
T5 construct: also called shuffle construct 5
T5 chain: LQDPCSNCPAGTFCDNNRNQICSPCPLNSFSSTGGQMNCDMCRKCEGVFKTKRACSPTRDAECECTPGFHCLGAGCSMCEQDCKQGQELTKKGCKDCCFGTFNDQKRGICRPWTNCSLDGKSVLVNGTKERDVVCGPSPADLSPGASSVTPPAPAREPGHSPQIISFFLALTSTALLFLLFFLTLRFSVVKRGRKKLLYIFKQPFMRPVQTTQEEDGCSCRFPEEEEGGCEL
The test is described as above. As to the method: as §1

The target of test [6] is T6, Human CD137 (TNR9_Human) (human, UniProt Q07011 24-255).
T6 construct: Full-length human CD137 expressed on HEK293T-17, NF-kB/293/GFP-Luc or K562 cells, or native on T cells; also called hCD137 wt; 4-1BB
In words: flow cytometry, HEK293-T17 cells transiently transfected with human CD137, antibody at 1 µg/mL, APC-labeled F(ab')2 secondary. As to the method:
(§2) FIG. 4: Binding of CD137 antibody clones to CD137 shuffle constructs expressed on HEK293-T17 cells. HEK293-T17 cells were transfected with the CD137 shuffle constructs, and with human CD137 (hCD137 wt), African elephant of wild boar CD137, as indicated. Binding of the different CD137 antibody clones to these constructs expressed on HEK293-T17 cells was measured by flow cytometry. Staining with polyclonal anti-CD137 antibody is shown as a control.
as §1

In test [7] the target is T6, Human CD137 (TNR9_Human). In words: flow cytometry, HEK293-T17 cells transiently transfected with human CD137, antibody at 1 µg/mL, APC-labeled F(ab')2 secondary [cont.]. The protocol: as §2, §1
The target of test [8] is T5, Human CD137 shuffle 5 (amino acids …). In words: flow cytometry on transfected HEK293T-17 cells. The protocol: as §1
The target in test [9] is T1, Human CD137 shuffle 3 (amino acids …). In words: flow cytometry on transfected HEK293T-17 cells, 1 µg/mL antibody. As to the method: as §1
Test [10] deals with T2, Human CD137 shuffle 4 (amino acids …). The test is described as above. The protocol:
as §1

B1: CD137 antibody clone 004 (rabbit) (antibody, human IgG1, kappa, V domains shown)
VH: QSLEESGGRLVTPGTPLTLTCTASGFSLSRYDMSWVRQAPGKGLEYIGVISSSGGTNYANWAKGRFTISKTSTTVDLKITSPTTEDTATYFCAREGDYWDFNLWGPGTLVTVSS
VL: AQVLTQTPSSVSAAVGGTVTINCQASQSISNLLAWYQQKPGQPPKLLIYGASTLASGVPSRFSGSGSGTEFTLTISDLESDDAATYYCAGGFPGLDTVAAFGGGTEAVVTR
notes: also called Clone 4; CD137 clone 004
Regarding B1, the binding result in test [1] is given as “no binding (tested: 1 µg/mL)”; in [2], “no binding (tested: 1 µg/mL)”; in [3], “binds”; in [4], “binds”; in test [5], “binds”; in test [6], “binds”.

B2: CD137 antibody clone 011 (rabbit) (antibody, human IgG1, kappa, V domains shown)
VH: QSLEESGGRLVTPGTPLTLTCTVSGIDLSSYHMCWVRQAPGKGLEYIGYIAYGGNTYYANWAKGRFTISKTSTTVDLRITSPTTEDTATYFCARGYSEDSYWGLWGPGTLVTVSS
VL: AYDMTQTPASVEAAVGGTVTIKCQASQNIENYLAWYQQKPGQPPKLLIYDTSKLTSGVPSRFSGSGSGTDFTLTISGVQSDDAATYYCQQDYGIIFVDNIFGGGTEVVVKR
notes: also called Clone 11; CD137 clone 011
As for B2, the binding result in test [1] is “no binding (tested: 1 µg/mL)”; in test [2], “no binding (tested: 1 µg/mL)”; in test [3], “binds”; in test [4] it was “binds”; in test [5], “binds”; in test [7], “binds”.

B3: CD137 antibody clone 006 (rabbit) (antibody, human IgG1, kappa, V domains shown)
VH: QSVEESGGRLVTPGTPLTLTCTVSGFSLSSYAMSWVRQAPGKGLEWIGIISTSGITYYASWAKGRFTISKTSTMVDLKITSPTTEDTATYFCARLNGFDDYVRYFDFWGLGTLVTVSS
VL: AIELTQTPSSVSAAVGGTVTINCQASESIASNLAWYQQKPGQPPKLLIYAASYLASGVPSRFKGSGSGTEYTLTISGVQSADAATYYCQSAFYVSSSDNAFGGGTEVVVKR
notes: also called Clone 6; CD137 clone 006
For the molecule B3, the binding result is “no binding (tested: 1 µg/mL)” in test [8]; “binds” in [3]; “binds” in test [4]; “binds” in test [9]; “binds” in test [10]; “binds” in test [6].

B4: CD137 antibody clone 010 (rabbit) (antibody, human IgG1, kappa, V domains shown)
VH: QSVEESGGRLVTPGTPLTLTCTVSGFSLSTYAMIWVRQAPGKGLEWIGVVYDNGYISHATWVKGRFTISKTSTTVGLEITSPTTEDTATYFCARSADGSWSTYFNLWGQGTLVTVSS
VL: DIVMTQTPASVEAAVGGTVTIKCQASESISNYLAWYQQKPGQPPKLLIYKASTLASGVSSRFKGSGSGTEFTLTISDLESADAATYYCQTNYCCSSSDNGFAFGGGTEVVVKR
notes: also called Clone 10; CD137 clone 010
As for B4, the binding result in [8] is “no binding (tested: 1 µg/mL)”; in [3], “binds”; in test [4] it was “binds”; in test [9] it was “binds”; in test [10], “binds”; in test [7] it was “binds”.

B5: CD137 antibody clone 009 (rabbit) (antibody, human IgG1, kappa, V domains shown)
VH: QSLEESGGRLVTPGTPLTLTCTVSGFSLNDYWMSWVRQAPGKGLEWIGYIDVGGSLYYASWAKGRFTISRTSTTVDLKMTSLTTEDTATYFCARGGLTYGFDLWGPGTLVTVSS
VL: DIVMTQTPASVSEPVGGTVTINCQASEDISSYLAWYQQKPGQRPKRLIYGASDLASGVPSRFSASGSGTEYALTISDLESADAATYYCHYYATISGLGVAFGGGTEVVVKR
notes: also called Clone 9; CD137 clone 009
In the case of B5, the binding result is listed as “no binding (tested: 1 µg/mL)” in test [8]; “binds” in test [3]; “binds” in [4]; “binds” in test [9]; “binds” in test [10]; “binds” in [7].

For the origin of these results see patent US20210317225A1 (Genmab, published 2021).
